The experiment concerns the target Mycobacterium tuberculosis cell wall sulfoglycolipid peptide on CD1b (human). Briefly: IFN-γ ELISPOT. CD4 clone of primary T cells transduced with the A05 TCR, with K562-CD1b. SGL was titrated from 1 µg/ml to 10^-7 µg/ml. This EC50 is stated to be 100-fold lower than that of an A05-CD8 T cell clone.; full-length, on cells. Particulars: chains alpha TRAV13-2 TRAJ52 CDR3:beta TRBV20-1 TRBJ1-2 CDR3.

B1: A05 TCR (peptide)
chain 1: CAEVLGGTSYGKLTF
chain 2: CSASGRRGYGYTF
As for B1, the EC50 of peptide was 0.6 ng/mL.

For the origin of these results see article PMC8748927.
